Positions count from the first letter of the chain named. Each block holds one binder with its values, some of them ahead of it.
Experiments:
[1] = target: T1, full-length untagged human GPNMB expressed on cells (human, UniProt Q14956 23-572); assay: cell-based or functional assay
T1 sequence: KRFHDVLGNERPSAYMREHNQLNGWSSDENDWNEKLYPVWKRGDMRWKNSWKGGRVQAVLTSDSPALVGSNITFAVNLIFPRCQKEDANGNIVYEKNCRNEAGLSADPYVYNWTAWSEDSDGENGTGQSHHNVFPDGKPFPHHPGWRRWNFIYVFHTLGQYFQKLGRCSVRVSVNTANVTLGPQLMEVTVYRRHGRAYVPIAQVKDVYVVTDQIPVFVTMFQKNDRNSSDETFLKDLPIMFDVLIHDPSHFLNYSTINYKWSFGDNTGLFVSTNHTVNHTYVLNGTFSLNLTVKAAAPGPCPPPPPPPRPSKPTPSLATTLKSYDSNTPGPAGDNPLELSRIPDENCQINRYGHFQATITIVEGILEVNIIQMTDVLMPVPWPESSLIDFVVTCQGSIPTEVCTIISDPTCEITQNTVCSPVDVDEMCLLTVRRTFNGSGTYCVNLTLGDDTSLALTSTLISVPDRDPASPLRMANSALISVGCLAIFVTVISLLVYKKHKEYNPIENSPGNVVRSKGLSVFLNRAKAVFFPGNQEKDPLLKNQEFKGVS

[2] = target: T2, soluble mouse GPNMB (recombinant extracellular domain) (mouse, UniProt Q99P91 23-502); assay: SPR Carterra, Ab immobilized
T2 construct: also called moGPNMB; not shown: C-terminal polyhistidine or Avi-His tag
T2 sequence: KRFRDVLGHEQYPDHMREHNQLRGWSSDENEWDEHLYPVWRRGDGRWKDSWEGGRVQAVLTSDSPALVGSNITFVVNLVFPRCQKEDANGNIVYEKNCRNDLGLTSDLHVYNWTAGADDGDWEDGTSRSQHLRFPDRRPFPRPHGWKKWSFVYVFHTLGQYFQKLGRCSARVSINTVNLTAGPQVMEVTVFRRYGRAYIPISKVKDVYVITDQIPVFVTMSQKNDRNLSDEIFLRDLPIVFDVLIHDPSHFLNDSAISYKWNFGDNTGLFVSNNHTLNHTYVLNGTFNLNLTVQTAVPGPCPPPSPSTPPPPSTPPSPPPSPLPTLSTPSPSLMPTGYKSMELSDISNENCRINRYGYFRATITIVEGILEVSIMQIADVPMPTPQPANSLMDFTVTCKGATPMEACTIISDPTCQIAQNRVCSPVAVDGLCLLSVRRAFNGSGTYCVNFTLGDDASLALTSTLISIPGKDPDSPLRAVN
In short: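 Analyte series of GPNMB extracellular domain (2.5, 7.4, 22, 67, 200, 600 nM) flowed in ascending order, no regeneration, over IgG1 antibodies EDC/NHS-immobilized on an HC200M array. HBS-EP+ plus 0.5 mg/ml BSA as running buffer, two blanks per series. Affinity estimated via high-throughput kinetic fitting.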

[3] = target: T3, soluble mouse GPNMB-Fc polypeptide (mouse IgG2A Fc) (mouse, UniProt Q99P91 23-502); assay: FACS, blocking of moGPNMB-Fc binding to SVEC4-10 cells
T3 construct: extracellular domain; bought (R&D System); also called moGPNMB-Fc; mGPNMB-Fc; not shown: Fc region of mouse IgG2A
T3 sequence (looked up): T2 sequence
Method: Purified full-length anti-GPNMB antibodies of the present disclosure were evaluated for their ability to block binding of moGPNMB-Fc to SVEC4-10 cells to determine the ligand blocking potency of each anti-GPNMB monoclonal antibody. Briefly, 2 μg/mL moGPNMB-Fc (mouse IgG2A Fc) diluted in binding buffer was pre-complexed with increasing concentrations of anti-GPNMB antibody of the present disclosure or human IgG1 isotype control antibody in 96-well plates. Subsequently, 100,000 SVEC4-10 cells were added per well and incubated on ice for 30 minutes. Soluble moGPNMB-Fc bound to cell surface was detected with fluorescent anti-mouse IgG2A secondary antibody and measured on FACSCanto. (FIG. 5A and FIG. 5B) IC50 values (for antibodies that block moGPNMB-Fc cell binding) and EC50 values (for antibodies that enhance moGPNMB-Fc cell binding) based on changes in MFI values were calculated (average+standard error) for each anti-GPNMB antibody and listed in Table 6. In Table 6, NA indicates no activity. […] In all cases, certain anti-GPNMB antibodies of the present disclosure blocked soluble GPNMB binding to cells, while other anti-GPNMB antibodies of the present disclosure enhanced soluble GPNMB binding to cells.

IC50 (read off the curve) of the loss of cell surface GPNMB (MFI), internalization assay on human macrophages [1]: ~2 nM
B1: anti-GPNMB antibody GPN-37 (antibody, human IgG1, V domains shown)
VH: EVQLVESGGGLVQPGRSLKLSCAASGFTFSSKSGMAWVRQAPTKGLEWVASISNGGGDTYYRDSVKGRFTISRDNAKNTQYLQMDSLRPEDTATYYCARHRDYGYDAYFDYWGQGVMVTVSS
VL: DIQMTQSPASLSASLGETVTIECLASEDIYSSLAWYQQKPGKSPQLLIYDASSLQDGVPSRFSGSESGTQYSLEINSLQSEDAATYFCQQHHDYPYTFGAGTKLELK
notes: chimeric

IC50 (read off the curve) of the loss of cell surface GPNMB (MFI), internalization assay on human macrophages [1]: ~2 nM
Kd [2]: 0.5 nM
koff [2]: 5.1e-05 s⁻¹
kon [2]: 100000 M⁻¹ s⁻¹
B2: anti-GPNMB antibody GPN-65 (antibody, human IgG1, V domains shown)
VH: QLQLQQSGTEVVKPGASVKIPCKASGYAFSSYWMNWVKQRPGKGLEWIGQIYPGDGDTNDNGKFEGKATLTVDKSSNTAYIQLSSLTSEDSAVYFCARSPLHLRGSMDYWGQGTSVTVSS
VL: SIVMTQTPKFLLVSAGDRVTITCKASQSVSNDVAWFQQKPGQSPELLIYSASNRYTGVPDRFTGSGYGTDFTFTISTVQAEDLAVYFCQQNYYSPFTFGGGTRLEIK
notes: chimeric

IC50 (read off the curve) of the loss of cell surface GPNMB (MFI), internalization assay on human macrophages [1]: ~2 nM
IC50 [3]: 1 nM
Kd [2]: 4.6 nM
koff [2]: 0.00082 s⁻¹
kon [2]: 190000 M⁻¹ s⁻¹
B3: anti-GPNMB antibody GPN-52 (antibody, human IgG1, V domains shown)
VH: DVQLQESGPGLVKPSQTVFLTCTVTGISITTGNYRWSWIRQFPGNKLEWIGYIYYSGTITYNPSLTSRITITRDTPKNEFFLEMNSLTAEDTATYYCARDLTHWYFDVWGTGTTVTVSS
VL: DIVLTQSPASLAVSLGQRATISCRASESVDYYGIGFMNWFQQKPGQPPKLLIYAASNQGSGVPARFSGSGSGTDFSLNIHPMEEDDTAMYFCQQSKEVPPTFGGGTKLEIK
notes: chimeric

IC50 (read off the curve) of the loss of cell surface GPNMB (MFI), internalization assay on human macrophages [1]: ~2 nM
IC50 [3]: 0.77 nM
Kd [2]: 2.1 nM
koff [2]: 0.00029 s⁻¹
kon [2]: 130000 M⁻¹ s⁻¹
B4: anti-GPNMB antibody GPN-61 (antibody, human IgG1, V domains shown)
VH: B3 VH with I69T, E79Q, N85S, Y96F, T102R
VL: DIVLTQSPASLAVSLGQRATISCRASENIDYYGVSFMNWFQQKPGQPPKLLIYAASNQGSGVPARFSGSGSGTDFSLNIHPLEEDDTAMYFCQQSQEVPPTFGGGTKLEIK
notes: chimeric

Source: patent US20250270343A1 (Alector, published 2025)
